Reference: a protein production outcome set (Wang et al. 2014)

Experiment: label from the status in PepcDB records

Row | Sequence | protein production
1 | MPEQQLADLSQEVAASGDSIAFAADFAVIVVVATVIGLLARQLGQPTIVAYILTGVVLGPVALDVVTQEGLVDVMAELGLGFLLFLLGLKMRFDDIREILAPITNVAIGQTVLQTALAFLVALLLGFATDEILVIALATVFGATPVIVKVLTDKDEITTLPGKIDVGVLIVQDIYLVVVLALFGAEQLGDAGEIATTLGVIFVMMSFIGLFSLASSRYLLPHLFERIANNKDVFLIVAIAWAFLFIAIAEGFDLSVEVGAFLAGLSLAQLPYSKELQDRITPITDFFILVFFASIGLQIESVGSLLTHWQEALIASVVLMVGNFWIMFYLIDREGFGPETSFLGSINMVQVSEFSLVVGALAFQQGYIGADVLGYLTLMALLTMTASTYIILYNHAIYERVAPWIRRISSGDGIDEGLPEYENHAVAIGYDEVTEKALPVLDEAFEEVVIIDRNTEHIAEIREAGEYESIFGDFRHKEVRKASNLKEAEFVLSSSVQREINEALLQETADDTPVFVEAERIADAHRLYEAGASYVVMPPHLAAEKLGEYLELYLTDQSVFHTRIQDDIEQIRRRASQATTRRRMASDTGVDLRTSGGDDD | failed
2 | MPERRTVALVTLGCARNEVDSEELAGRLEADGWQLVEDAEDADVAVVNTCGFVEAAKKDSVDALLEANDLKGHGRTQAVVAVGCMAERYGKELAEALPEADGVLGFDDYTNISDRLQTILNGGIHAAHTPRDRRKLLPISPAERQSAGADVALPGHGAPEGLPEDLPEGLAPESGPRAPLRRRLDGSPVASVKLASGCDRRCSFCAIPSFRGSFISRRPSDVLGETRWLAEQGVKEVMLVSENNTSYGKDLGDIRLLETLLPELAEVDGIERVRVSYLQPAEMRPGLIDVLTSTPKIAPYFDLSFQHSAPDVLRAMRRFGDTDRFLELLDTIRSKAPQAGVRSNFIVGFPGETEADLAELERFLTGARLDAIGVFGYSDEEGTEAATYGHKLDEDVVAARLARVSRLAEELVAQRAEERVGETVHVLVESIDDEEGAVGRAEHQAPETDGQVLFTSGEGLTVGRMVEAKVVGTEGVDLVAEPLPGSLVCTEEAGR | failed
3 | MPETMHDNALTQSCTLVTSPELGTMHAMPTYIATKNGEPTAIAIESIAPDGYNGEIKVITGIDNQGKILGTRVLSHQETPGLGDKIDLRVTSWILGFTGKQVTEDNWNSWKVRKDGGDFDQFTGATITPRAVIKAVRNTVNYVNQSRDEILSQPLEHHHHHH | not failed
4 | MPEVRAERYIPAPPERVYRLAKDLEGLKPYLKEVESLEVVAREGARTRSRWVAVAMGKKVRWLEEEEWDDENLRNRFFSPEGDFDRYEGTWVFLPEGEGTRVVLTLTYELTIPIFGGLLRKLVQKLMQENVESLLKGLEERVLAASS | not failed
5 | MPFEIGTMPIMSIDPKLLEVLACPQDKGPLKYLEAEQVLVNERLEIAYRIDDGIPVMLVDESIAWPPAEKLEHHHHHH | failed
6 | MPFIYRRRVQFYETDAQGIVHHSNYFRYFEEARGEFLRSKGFPYSKMRDMGLEVVLLNAYCEYKKPLFYDDVFEVHLNLEELSRFTFTFSYIVFKEDIAVAKANTKHCMVKNGKIVSIPKEVLEVLKD | not failed
7 | MPFNQNVSLECYNGILSMLLNGAPLADILHALVLKIEDQRLGTHASVLLLSEDGKRVLTGAAPHLPDSYNQVIHGVEIGPEVGSCGTAAYTGQRVIVEDIEHHPYWALYKSFALVHGLRACWSEPIKDTQGKVLGTFAMYYKEIKSPTVADLTLIAEAARLASLAIERSRSLEFQRLEHHHHHH | not failed
8 | MPFWLEVVINVAFSYLASVGFALTINVPHRALNLSGISGTVGWMAYWFCFRLGAGRMASNLIGAFLIGILGLVFARIKKCPVTVFNIPALVPLVPGMPAYQAVRAFVVGDYIQGQELILRVAIVTGAIGLGFLLSTMCTEAFYKIRYRHFRNTGLYFKRKK | failed
9 | MPGFKSDLLIKRMDNEMETWILPTIPAFESTAEIAKIYRVRHQEAIEKSSDIYHFSGFIQEQIVCSLTLTVMGDCARIDDVATFPKYQKNGYATQLILSELQILKDTNISWCFLEASADGLNIYKKIG | not failed
10 | MPGTVGVLSGARSLLLSMVASVTAAGGNAAIVGQPDIGLLAAVEMGADLSRLAMIPDPGTDPVEVAAVLIDGMDLVVLGLGGRRVTRARARAVVARARQKGCTLLVTDGDWQGVSTRLAARVCGYEITPALRGVPTPGLGRISGVRLQINGRGRLEHHHHHH | failed
11 | MPGTVSPAPSLQSTTARICPSIRRPTMSRFGALRLPLAVCLAVLLTIASGPARAQPADAPLDEADYGQWERLGGATLSPEGTWMATPIRRVNGNHELRIHHTRRDTTRTVAFGRSPAFSADGQWLAYSIGMSEERRKKRRKQEKPVRRRLGLLNLATGDTTVVPAVSGFAFSDGGRYLAMRRYPPQEAPDDLRGADLLVRDLEAETYTSFGNVADMAWQHEAPHLALTIDGRTETGNGVRLYDAATGRLQTLASTPGDYTGLSWRPAEDDLAALRARDSDDWQHETHVVLAWTGVNDGAPERRQFDPATAGAFPDSLRIVDHRTPAWATERERLFFGVQKREAVAPDTAQADSAAADSLEDYGPAGVKVWHTSDVEIIPRQEVQAEQDREDNYLTAWHLGRSGEAHWTRLGTELTEDVQVLHGGARAVGLDQTPYREERMFGPVYHDLYAIDVATGEREQVAEKVQFFEGPSANGRYLLWLKNDQYHAYDLQQETTNTITADVPVPVVDVDDDHTVEQKPPFGIAGWTAGDRSVLVYSEYDVWRIAPDGSSTERLTTGRADSVRHRYVDLTDEAPGEADVIPRNEPIYWDLYDEWTEEHGYARASALTDTPERMVWKPKMMTGLTKADSADVYAYRVEDFEDSPDYFRAGPQLADARQVTSTNPFQDDYAWGRSDLVAFRNANGKKLQGALFYPADYDPDKTYPMITYIYETRSPQARSYVVPTREHPYNTTTFTQEGYIVFQPDITYRPRDPGNSAVDAIVPGVQAAAEAAAVDTSRIGLVGHSWGGYQTTFTATQTDLFATAVAGAPLTNMVSMYNSIYWRSGGTDARIFEISQGRMGVPPWEDMDAYVANSPLHHIESLNTPFLMAFGTDDGAVEFNQGVEFYNAARRADKELAFLVYDGENHGISRKEKNTVDYRNRVLEWFDHYLKGDEGPAWIQDGVPFLEQVERQEEAAVSR | failed
12 | MPHFTKRPAQPQAALAEAAGLRWLAEASSAVAQVVSADAEQITTVGVETQLPTPDAAFKAGEELARIHLAGAPAFGCPPAGWAGLNYIGTQGQACLSTPTWGVFYSQQRVLPFARRARRRNHLTEHALWVVEAACDLISELPDDVPPARIHGDLWFGNLLFGTDGPVFIDPAAHGGHPETDLAMLDVFGAPYLDEIREGYLSINPLPDGWRERTPMHQLHPLAVHAASHGPSYGVELLHAAKATLKLLDLEHHHHHH | failed
13 | MPHLRTILPQLRNNWFFIALLTSCGLWCFFAPSLLGALLFSITVIRIVCTKSFPVILGGFLCSFLIVGGILIFQWLKPVSLLPKEVRLSGQLTILPDEIQVDGDQVKFPANWIVKGKRQKVMAFYQLKSVKEKQQWQQLTTTIQATAVGILDSPQGQTNKNGFNYQLFLKNQGIEAILFIEEIGQPRSFFSWRFKEIISGWRKWAMVHIQKNFAETSAMYMNALLLGFRNEEFAEISDKFSALGILHLFSLSGMHVSFFLRLFRLLMLRIARRTQESYFLWQCGFSLIYAGLTGFSVSVMRALLQTNLNTFNRRFNWQVPALDCWSLTLLVHLIVQPTLFFSVGGQFSYLLSFVLLFLEQTLVGYSSPFIKNCLGSFLLAVASLPILVQSFYEWPLLGSFLTFLLLPIFERFLLPLLTLSFFLVIIMPARYLAALLEPLFLTMNGLFEWVLVHLNPKLTIGYLNSWIQISLLLLIGFSMIYLADKSKKIFFSIGLLIVLINSKYLSPIGIVAMIDVGQGDSLFIQAPFHRKNTLIDTGGRLSFGKEAWRQRKNSRSGAEYSVIPFLKSQGVKRLDEVIITHAHEDHFGDLLAIAQKVPISVLYFPKGAAEANFSFRQVLKQLQKSGTDCRPILAPKRINGPVSFQILSPNKSSIGGNNDSIVFSTQLGGRHFLFTGDLEAEGEEQVLARYPQLKIDILKVGHHGSKTSSTKRFIKQLNPREALISAGLNNRFKHPHQETLATLEEQKINYYRTDLQGMIYYQWLPWQGLSKAKFVKEQD | failed
14 | MPHPAERSRHGRGWFEKLAEAASNLTSSPVFYCFCLLLVFAFIVAHAVGLELTWQLLIGDIMTAVNLLLLALLKNSERRAEHAIQHKLDSIAAALLEQREGHSRQAHEELRKAIGIEDEF | failed
15 | MPHPATMFFLFTLAVIFLSWIFDIYGLRVQLPQTGAEIRVQSLLSPEGIRWMLRNAITNFTGFAPLGMVLIAMFGIGVAQHSGFIDACVRQGVKNRKNTKRIILWVIILGLLSNIVGDAGYIILLPIAATLFYSVGLNPVAGIITAYVSVSCGYSANVVLSTMDPLIARTTQEAAIDSGVYQGNTGPLCNYYFMSVSTFVIGAIIYRITCKRLIPSLGQYEGKQIFEGYKQLSRKERRAMTMAIVMGMLYAAIILWATFSSWGILRGVNGGLIRSPFIMGILFLLSLGAAIMGMVYGFSSGRYRSDNDVIEGLAQPMKLLGGYLVIAFFAAQMFACLEYSHLDKCVAIIGANLLSSVQADPLWTLILFILFTATINLIMVSATAKWAFMAFIFVPVFARMGIEPDMTQCAFRIGDSATNAITPFMFYMPLVLTYMQQYDKQATYGSLLKYTWRYSVYILIGWTMLLFIWYLTGLPLGL | failed
16 | MPHSSTNITKAVLQGRGLYPISLVTGAMFTEEMYVVLESTTRAETFLTPMELQAKLMEYLTGTEVSLSPDLLALPDVESRAQYLMTTACELQLANGGYLQWYAVRLEKLEHHHHHH | not failed
17 | MPIELRRLRALRLAWGVALCLAVSFGIGLPVPILAPVFAVLLLAMRSQPLPLRAAPALALLVLLACGSGLLLIPLLRHAPLAGVLLVGVGVFLTLRYALKGGNGLLANLLVVGLTMIAAAGTSDFTLALSVVEALAKGMLLAVLGTSVVHTLFPEPANAPAPPVPPLLGSEHVSWVALRATLIVMPAFLLALIAPDQYMPLIMKAVSVGQQAGETRARHASRELIGSTLLAGVLAIALWVALSLFVHLWMFFLWVLLFALWQARRLYQAVPSRQSPAYWVSCLTTMLILLGQSVQDSAGGQDVYKAFAVRMALFLAVSVYASAMLIWIDRLRSRRGLLRG | failed
18 | MPIHSLSLAGFRSIRKLTLELDALNVVVGANGCGKSNLYKSIQLLHAAAEGGLSAALAAEGGAQKAMWAGGTRRGDKARVPKRMILSARLDDYDYELQLGYPEPSCSLFALDPLVKEESLWLAGHGRRPSTLLLERRNQAAFLCGVEGERNSYPASLRAEESLFGQLAEPHRYPELSQVRETLRNWRFYHEFAIWPGSPLRAPQVGIRSPVLAHDGANLAAAFQTIVEIGDHELLHSVLTDAFPDSRFLVDAQQGRFQMLMRRDGLLRPLEAAELSDGTLRFLCLAVALLSPRPPAFMALNEPENSLHPALLPALARLIAEASRHSQLWVTSHSPELAERIRRHRPLKTFQLSLRDGETVLQDDLEHHHHHH | failed
19 | MPIIGTKELITCDNTDFIHSGNDADRSGFILSVPVFGQDGSLRGSVSAIMLTSALRKLLPGSDYVIVNSGYGFESDQHKMSTALAADSRAFTAADPNLIYSEVIPLSLNDPRSAWRLWAGFPNSRFDNNMDVQSVRQFELAGYAAVAVVTLLALACWYAIGRTMTMQVEAAETLERRVEQRTAQIQHLATHDILTGLPNRGLLADTMDEALRSLRDDEKLAVHCVDLDRFKPVNDTLGHPIGDQLLGAVAKRLKHHAGETAMVARIGGDEFVILQLLLDGNDEAGVLASRVIHALSDEFSIQGHKINIGGSIGIAVFPDDGQNSETLIRNADLALYKAKMEGRGTCRSFEPGMDARLQERRQLESELALGVKKEQFVLHYQPLHDAKTSQLTGFEALVRWNHPRLGLLAPSEFIQLAEETGAIDALGEWIMRRACADAAKWPQPVKVAVNLSPAQFKQQGLSLQVAAALAASGLLPSRLELEITESVLLANNENTLNTLYSLRDLGISIAMDDFGTGYSSLSYLRSFPFNRIKIDRSFVSLMCESSESRAIVKAVAELGTTLGMTTTAEGVETEDQYRLVKENGCTDVQGWYFGRPMPASELHTLFEQPEALTA | failed
